Assay [1] concerns the target T1, human lymphotoxin (TNFβ) (human) (UniProt P01374).
T1 sequence (looked up): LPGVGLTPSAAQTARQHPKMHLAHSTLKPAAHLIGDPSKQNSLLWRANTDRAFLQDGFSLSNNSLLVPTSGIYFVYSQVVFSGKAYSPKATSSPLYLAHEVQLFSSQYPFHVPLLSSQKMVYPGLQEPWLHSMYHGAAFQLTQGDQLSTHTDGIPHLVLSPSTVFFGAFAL
Nature of the assay: cell-based or functional assay.

Assay [2] deals with human tumor necrosis factor-alpha (hTNFα) (human) (UniProt P01375). As to the kind of experiment: cell-based or functional assay.
human tumor necrosis factor-alpha (hTNFα) (human), sequence (P01375 77-233): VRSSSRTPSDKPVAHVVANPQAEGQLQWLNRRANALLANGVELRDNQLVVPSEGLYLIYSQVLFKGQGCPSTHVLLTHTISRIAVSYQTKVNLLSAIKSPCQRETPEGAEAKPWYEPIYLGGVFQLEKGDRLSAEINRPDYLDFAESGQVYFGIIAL

The molecule “p75-sf2 (complete extracellular domain of p75 fused to the IgG1 heavy chain) (from UniProt P20333 23-257) (Fc fusion)” had an amount needed for the same inhibition of human TNFβ, against p75P-sf2 in assay [1] of 3 fold.

“p55-sf2 (p55 TNF receptor/IgG1 heavy chain single fusion with truncated light chain JCK) (from UniProt P19438 3-159) (Fc fusion)” came in with an amount needed for the same inhibition of human TNFβ, against p75P-sf2 in assay [1] of 3 fold.

B1: chimeric mouse/human IgG1 anti-platelet mAb (7E3) (antibody, INN chains, looked up, V domains shown)
VH: EVQLQQSGTVLARPGASVKMSCEASGYTFTNYWMHWVKQRPGQGLEWIGAIYPGNSDTSYIQKFKGKAKLTAVTSTTSVYMELSSLTNEDSAVYYCTLYDGYYVFAYWGQGTLVTVSA
VL: EIVLTQSPVTLSVTPGDSVSLSCRASRDISNNLHWFQQTSHESPRLLIKYASQSMSGIPSRFSGSGSGTDFTLSINSVETEDFGMYFCQQTNSWPYTFGGGTKLEIK
modifications: chimeric IgG1
In assay [2], B1 yielded an IL-6 secreted by FS-4 fibroblasts, 0.3 ng/ml rhTNF with 4 µg/ml antibody (no antibody: 1.36) of 1.6 ng/mL; an IL-6 secreted by FS-4 fibroblasts, 1.5 ng/ml rhTNF with 4 µg/ml antibody (no antibody: 2.00) of 1.96 ng/mL; an IL-6 secreted by FS-4 fibroblasts, 7.5 ng/ml rhTNF with 4 µg/ml antibody (no antibody: 2.56) of 2.16 ng/mL.

The values are drawn from patent publication US20030175837A1.
